The supplement of paper PMC6757056
± gives the standard deviation of the averaged measurements.

B1: library; a variant is named by its letters at N, in order (parent)
chain: GCUGUCACCGAGAAACUGUGAAGUAUAUCUUAAACCUGGGCACUUAAAAGAUAUAUGGAGUUAGUAGUGCAACCUGCUCGGUCUGAUGAGUCCNNNNNNGGACGAAACAGC

Experiments:
cyclic di-GMP [1] = variants of: B1; experiment: normalized RNA/DNA level without ligand (relative to sTRSVctl = 100) (log10 (% of sTRSVctl)); HEK293T; ligand: cyclic di-GMP (c-di-GMP-II aptamer); higher = less ribozyme self-cleavage, higher mRNA level; conditions: reporter: mCherry (pCS4076), ligand present: no
Procedure, shortened: (§1)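 RNA level was computed as RNA reads over DNA reads divided by a spiked-in non-cleaving sequence or by the top sequences, then scaled and log-transformed. Scaling was ×100 with log10, the top group was 25 sequences, and the threshold was ≥100 DNA reads. The reads came from HEK293T cells transfected at 4 µg per 6-well well with ribozyme switch library plasmids (mCherry, or eGFP in some ligand experiments). Total RNA was extracted with EDTA 72 h after transfection, with any ligand added 1 h before it.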

cyclic di-GMP [2] = variants of: B1; experiment: normalized RNA/DNA level with ligand (relative to sTRSVctl = 100) (log10 (% of sTRSVctl)); HEK293T; ligand: cyclic di-GMP (c-di-GMP-II aptamer); ligand concentration (+) RNA-Seq: 1 mM; higher = less ribozyme self-cleavage, higher mRNA level; conditions: reporter: mCherry (pCS4076), ligand present: yes
Procedure, shortened: as §1

Row | Variant | normalized RNA/DNA level without ligand (log10) (cyclic di-GMP [1]) | normalized RNA/DNA level with ligand (log10) (cyclic di-GMP [2])
1 | UGUCCG | 1.856 ± 0.0053 | 1.95 ± 0.042
2 | UGUCCA | 1.8 ± 0.013 | 1.87 ± 0.068
3 | AGUUCG | 1.69 ± 0.021 | 1.79 ± 0.11
4 | AGUUCU | 1.69 ± 0.027 | 1.87 ± 0.056
5 | AGUUCA | 1.62 ± 0.051 | 1.8 ± 0.061
6 | AGUUCC | 1.8 ± 0.043 | 1.9 ± 0.084
7 | UGGGGA | 1.58 ± 0.085 | 1.73 ± 0.073
8 | UGGGGG | 1.79 ± 0.055 | 1.87 ± 0.09
9 | UGGGGU | 1.63 ± 0.056 | 1.77 ± 0.11
10 | UGGGGC | 1.767 ± 0.012 | 1.91 ± 0.1
11 | CGUCUG | 1.727 ± 0.015 | 1.83 ± 0.064
12 | CGUUAG | 1.753 ± 0.0013 | 1.89 ± 0.11
13 | CGUUAC | 1.57 ± 0.059 | 1.74 ± 0.064
14 | AGGUGG | 1.69 ± 0.031 | 1.78 ± 0.12
15 | AGGUGU | 1.66 ± 0.041 | 1.77 ± 0.06
16 | AGGUGC | 1.75 ± 0.037 | 1.82 ± 0.11
17 | UGUGUG | 1.69 ± 0.053 | 1.86 ± 0.056
18 | UGUGUU | 1.665 ± 0.0047 | 1.82 ± 0.16
19 | UGUGUC | 1.756 ± 0.0091 | 1.86 ± 0.1
20 | UGUGUA | 1.61 ± 0.045 | 1.74 ± 0.072
21 | CGGGUU | 1.748 ± 0.012 | 1.82 ± 0.13
22 | CGUAGA | 1.44 ± 0.016 | 1.64 ± 0.14
23 | CGUAGU | 1.69 ± 0.041 | 1.82 ± 0.13
24 | CGUAGG | 1.71 ± 0.033 | 1.82 ± 0.14

Row | Variant | normalized RNA/DNA level without ligand (log10) (cyclic di-GMP [1]) | normalized RNA/DNA level with ligand (log10) (cyclic di-GMP [2])
25 | CGUAGC | 1.73 ± 0.062 | 1.83 ± 0.055
26 | UGUUAA | 1.693 ± 0.01 | 1.85 ± 0.09
27 | UGUUAG | 1.74 ± 0.03 | 1.86 ± 0.14
28 | UGUUAC | 1.735 ± 0.0055 | 1.91 ± 0.14
29 | UGUUAU | 1.6763 ± 0.0012 | 1.84 ± 0.14
30 | AGUCUA | 1.55 ± 0.016 | 1.77 ± 0.12
31 | AGUCUU | 1.726 ± 0.0047 | 1.84 ± 0.11
32 | AGUCUC | 1.764 ± 0.0076 | 1.88 ± 0.085
33 | AGUCUG | 1.629 ± 0.012 | 1.76 ± 0.056
34 | UGUAAU | 1.679 ± 0.01 | 1.84 ± 0.14
35 | UGUAAC | 1.718 ± 0.0028 | 1.84 ± 0.12
36 | UGUAAG | 1.73 ± 0.022 | 1.84 ± 0.089
37 | GGGUCA | 1.828 ± 0.013 | 1.91 ± 0.16
38 | GGGUCC | 1.91 ± 0.098 | 1.95 ± 0.14
39 | UGUUCU | 1.75 ± 0.051 | 1.88 ± 0.13
40 | UGUUCC | 1.84 ± 0.052 | 1.94 ± 0.14
41 | UGUUCA | 1.71 ± 0.066 | 1.81 ± 0.12
42 | UGUUCG | 1.8 ± 0.023 | 1.89 ± 0.12
43 | AGUCGU | 1.6615 ± 0.0012 | 1.79 ± 0.08
44 | AGUCGA | 1.71 ± 0.036 | 1.84 ± 0.081
45 | AGUCGC | 1.731 ± 0.0037 | 1.85 ± 0.12
46 | AGUCGG | 1.8 ± 0.051 | 1.87 ± 0.082
47 | UGGUCA | 1.78 ± 0.061 | 1.89 ± 0.067
48 | UGGUCC | 1.86 ± 0.085 | 1.98 ± 0.085

Row | Variant | normalized RNA/DNA level without ligand (log10) (cyclic di-GMP [1]) | normalized RNA/DNA level with ligand (log10) (cyclic di-GMP [2])
49 | UGGUCU | 1.75 ± 0.048 | 1.91 ± 0.11
50 | CGUUCG | 1.81 ± 0.095 | 1.9 ± 0.16
51 | UGUAUG | 1.75 ± 0.045 | 1.9 ± 0.13
52 | UGUAUU | 1.73 ± 0.016 | 1.9 ± 0.091
53 | UGUAUC | 1.734 ± 0.0024 | 1.87 ± 0.11
54 | UGUGCA | 1.77 ± 0.02 | 1.87 ± 0.073
55 | UGUGCC | 1.85 ± 0.074 | 1.94 ± 0.14
56 | UGUGCG | 1.804 ± 0.0083 | 1.93 ± 0.059
57 | UGUGCU | 1.71 ± 0.071 | 1.87 ± 0.089
58 | GGUAAU | 1.61 ± 0.039 | 1.72 ± 0.037
59 | GGUAAG | 1.49 ± 0.12 | 1.65 ± 0.098
60 | GGUAAA | 1.441 ± 0.0091 | 1.62 ± 0.13
61 | GGUAAC | 1.743 ± 0.0073 | 1.85 ± 0.077
62 | GGUGUA | 1.6 ± 0.14 | 1.76 ± 0.14
63 | GGUGUU | 1.63 ± 0.037 | 1.86 ± 0.094
64 | GGUGUC | 1.66 ± 0.019 | 1.8 ± 0.1
65 | CGGUGG | 1.66 ± 0.066 | 1.79 ± 0.1
66 | CGGUGC | 1.785 ± 0.007 | 1.9 ± 0.12
67 | AGGUCU | 1.73 ± 0.045 | 1.85 ± 0.14
68 | AGGUCC | 1.86 ± 0.022 | 1.94 ± 0.08
69 | AGGUCG | 1.738 ± 0.013 | 1.82 ± 0.11
70 | GGUCGU | 1.66 ± 0.056 | 1.83 ± 0.036
71 | GGUCGC | 1.74 ± 0.034 | 1.87 ± 0.15
72 | UGUCUG | 1.736 ± 0.0044 | 1.88 ± 0.08

Row | Variant | normalized RNA/DNA level without ligand (log10) (cyclic di-GMP [1]) | normalized RNA/DNA level with ligand (log10) (cyclic di-GMP [2])
73 | UGUCUA | 1.71 ± 0.037 | 1.84 ± 0.15
74 | UGUCUU | 1.73 ± 0.0071 | 1.88 ± 0.1
75 | UGUCUC | 1.79 ± 0.0075 | 1.88 ± 0.087
76 | AGUCCU | 1.77 ± 0.023 | 1.87 ± 0.086
77 | AGUCCA | 1.663 ± 0.0054 | 1.78 ± 0.049
78 | AGUCCC | 1.77 ± 0.042 | 1.87 ± 0.069
79 | AGUAUG | 1.54 ± 0.085 | 1.75 ± 0.087
80 | AGUAUA | 1.47 ± 0.015 | 1.69 ± 0.11
81 | AGUAUU | 1.68 ± 0.037 | 1.83 ± 0.1
82 | AGUAUC | 1.68 ± 0.022 | 1.81 ± 0.13
83 | AGGGGU | 1.57 ± 0.058 | 1.7 ± 0.13
84 | AGGGGC | 1.69 ± 0.1 | 1.83 ± 0.091
85 | AGGGGA | 1.53 ± 0.1 | 1.59 ± 0.054
86 | AGGGGG | 1.72 ± 0.026 | 1.81 ± 0.075
87 | AGUGCU | 1.67 ± 0.043 | 1.82 ± 0.096
88 | AGUGCG | 1.7 ± 0.058 | 1.85 ± 0.095
89 | AGGUUC | 1.75 ± 0.026 | 1.86 ± 0.14
90 | AGGUUG | 1.7 ± 0.022 | 1.77 ± 0.1
91 | AGGUUA | 1.54 ± 0.037 | 1.64 ± 0.18
92 | AGGUUU | 1.7 ± 0.04 | 1.85 ± 0.11
93 | CGUGUU | 1.6 ± 0.033 | 1.78 ± 0.12
94 | CGUGUC | 1.67 ± 0.055 | 1.82 ± 0.038
95 | CGUGUA | 1.4 ± 0.062 | 1.56 ± 0.13
96 | CGUGUG | 1.678 ± 0.0082 | 1.8 ± 0.092

Row | Variant | normalized RNA/DNA level without ligand (log10) (cyclic di-GMP [1]) | normalized RNA/DNA level with ligand (log10) (cyclic di-GMP [2])
97 | CGUCAG | 1.79 ± 0.056 | 1.92 ± 0.11
98 | CGUCAU | 1.46 ± 0.042 | 1.64 ± 0.13
99 | CGUCAC | 1.63 ± 0.065 | 1.78 ± 0.062
100 | CGUGCU | 1.64 ± 0.05 | 1.81 ± 0.063
101 | CGUGCC | 1.75 ± 0.02 | 1.84 ± 0.093
102 | GGUAUA | 1.5 ± 0.066 | 1.72 ± 0.025
103 | GGUAUU | 1.61 ± 0.056 | 1.8 ± 0.11
104 | GGUAUG | 1.59 ± 0.093 | 1.74 ± 0.04
105 | AGUGAG | 1.52 ± 0.11 | 1.67 ± 0.13
106 | AGUGAU | 1.671 ± 0.003 | 1.81 ± 0.12
107 | GGUCAC | 1.754 ± 0.014 | 1.87 ± 0.091
108 | GGUCAU | 1.56 ± 0.055 | 1.83 ± 0.081
109 | GGUCAA | 1.4 ± 0.095 | 1.64 ± 0.092
110 | GGGUUC | 1.79 ± 0.072 | 1.89 ± 0.12
111 | UGGUGU | 1.6 ± 0.11 | 1.81 ± 0.063
112 | UGGUGC | 1.72 ± 0.053 | 1.86 ± 0.099
113 | UGGUGG | 1.68 ± 0.017 | 1.81 ± 0.12
114 | CGUCCG | 1.82 ± 0.035 | 1.89 ± 0.069
115 | CGUCCC | 1.75 ± 0.029 | 1.9 ± 0.086
116 | CGUCCA | 1.53 ± 0.11 | 1.72 ± 0.1
